Reference: patent US20180258187A1 (Memorial Sloan Kettering, published 2018)

Molecular target: EBV-LMP2 peptide presented by HLA-A*02:02 on artificial antigen presenting cells (human; Epstein-Barr virus)
Experiment: cell-based or functional assay

B1: LMP2-38×CD3 bispecific antibody (bispecific antibody)
chain: QSALTQPASVSGSPGQSITISCTGTSSDVGSYNDVSWYQQHPGKAPKLMIYDVSNRPSGVSNRFSGSKSGNTASLTISGLQTEDEADYYCNSYTSSNTYVFGTGTKVTVLGQVQLVQSGAEVKKPGASVQVSCRASGYTITSYYMHWVRQAPGQGLEWMGVINPNAGSTRYAQKFQGRVTMSTDTSTSTVYMALSSLRSDDTAVYYCARGMYRMYDWGQGTLVTVSSDVQLVQSGAEVKKPGASVKVSCKASGYTFTRYTMHWVRQAPGQGLEWIGYINPSRGYTNYADSVKGRFTITTDKSTSTAYMELSSLRSEDTATYYCARYYDDHYCLDYWGQGTTVTVSSGEGTSTGSGGSGGSGGADDIVLTQSPATLSLSPGERATLSCRASQSVSYMNWYQQKPGKAPKRWIYDTSKVASGVPARFSGSGSGTDYSLTINSLEAEDAATYYCQQWSSNPLTFGGGTKVEIKHHHHHH
With B1 as the binder, how does the “EC50 (read off the curve), T cell cytotoxicity on peptide-pulsed aAPC expressing HLA-A*02:02” value read?
Its value is about 0.02 µg/mL.
